± gives the uncertainty stated by the source.
B1: Myocardin, residues 363 to 406; numbered along this chain, Q8IZQ8 (parent)
chain: KPGPLPPNLDDLKVSELRQQLRIRGLPVSGTKTALMDRLRPFQD

Variants of: B1
Experiment: abundance fitness (aPCA) (normalised: wild type 0, dead -1); higher = more abundant; growth selection in yeast, the domain comes from the species named
Conditions: Homo sapiens

Row | Variant | abundance fitness
1 | KPGPLPPNLDDLKVSELRQQLRIRGLPVSGTKTALMDRLKPFQD [R40K] | 0.194 ± 0.1
2 | KPGPLPPNLDDLKVSELRQQLRIRGLPVSGTKTALMDRLSPFQD [R40S] | -0.107 ± 0.09
3 | KPGPLPPNLDDLKVSELRQQLRIRGLPVSGTKTALMDRLEPFQD [R40E] | -0.152 ± 0.087
4 | KPGPLPPNLDDLKVSELRQQLRIRGLPVSGTKTALMDRLDPFQD [R40D] | -0.614 ± 0.14
5 | KPGPLPPNLDDLKVSELRQQLRIRGLPVSGTKTALMDRLGPFQD [R40G] | -0.294 ± 0.076
6 | KPGPLPPNLDDLKVSELRQQLRIRGLPVSGTKTALMDRLWPFQD [R40W] | -0.731 ± 0.17
7 | KPGPLPPNLDDLKVSELRQQLRIRGLPVSGTKTALMDRLNPFQD [R40N] | -0.698 ± 0.15
8 | KPGPLPPNLDDLKVSELRQQLRIRGLPVSGTKTALMDRLTPFQD [R40T] | -0.12 ± 0.099
9 | KPGPLPPNLDDLKVSELRQQLRIRGLPVSGTKTALMDRLIPFQD [R40I] | -0.205 ± 0.19
10 | KPGPLPPNLDDLKVSELRQQLRIRGLPVSGTKTALMDRLPPFQD [R40P] | -0.346 ± 0.1
11 | KPGPLPPNLDDLKVSELRQQLRIRGLPVSGTKTALMDRLLPFQD [R40L] | -0.284 ± 0.072
12 | KPGPLPPNLDDLKVSELRQQLRIRGLPVSGTKTALMDRLCPFQD [R40C] | -0.499 ± 0.28
13 | KPGPLPPNLDDLKVSELRQQLRIRGLPVSGTKTALMDRLAPFQD [R40A] | 0.092 ± 0.064
14 | KPGPLPPNLDDLKVSELRQQLRIRGLPVSGTKTALMDRLMPFQD [R40M] | -0.25 ± 0.1
15 | KPGPLPPNLDDLKVSELRQQLRIRGLPVSGTKTALMDRLVPFQD [R40V] | -0.376 ± 0.085
16 | KPGPLPPNLDDLKVSELRQQLRIRGLPVSGTKTALMDRLQPFQD [R40Q] | -0.042 ± 0.2
17 | KPGPLPPNLDDLKVSELRQQLRIRGLPVSGTKTALMDDLRPFQD [R38D] | -0.795 ± 0.19
18 | KPGPLPPNLDDLKVSELRQQLRIRGLPVSGTKTALMDALRPFQD [R38A] | -0.592 ± 0.13
19 | KPGPLPPNLDDLKVSELRQQLRIRGLPVSGTKTALMDWLRPFQD [R38W] | -1.02 ± 0.13
20 | KPGPLPPNLDDLKVSELRQQLRIRGLPVSGTKTALMDCLRPFQD [R38C] | -0.929 ± 0.18

Row | Variant | abundance fitness
21 | KPGPLPPNLDDLKVSELRQQLRIRGLPVSGTKTALMDNLRPFQD [R38N] | -0.765 ± 0.2
22 | KPGPLPPNLDDLKVSELRQQLRIRGLPVSGTKTALMDMLRPFQD [R38M] | -0.445 ± 0.11
23 | KPGPLPPNLDDLKVSELRQQLRIRGLPVSGTKTALMDTLRPFQD [R38T] | -0.316 ± 0.16
24 | KPGPLPPNLDDLKVSELRQQLRIRGLPVSGTKTALMDGLRPFQD [R38G] | -0.469 ± 0.071
25 | KPGPLPPNLDDLKVSELRQQLRIRGLPVSGTKTALMDHLRPFQD [R38H] | -1.2 ± 0.26
26 | KPGPLPPNLDDLKVSELRQQLRIRGLPVSGTKTALMDELRPFQD [R38E] | -0.451 ± 0.086
27 | KPGPLPPNLDDLKVSELRQQLRIRGLPVSGTKTALMDFLRPFQD [R38F] | -0.907 ± 0.18
28 | KPGPLPPNLDDLKVSELRQQLRIRGLPVSGTKTALMDSLRPFQD [R38S] | -0.479 ± 0.082
29 | KPGPLPPNLDDLKVSELRQQLRIRGLPVSGTKTALMDYLRPFQD [R38Y] | -0.519 ± 0.12
30 | KPGPLPPNLDDLKVSELRQQLRIRGLPVSGTKTALMDPLRPFQD [R38P] | -0.219 ± 0.13
31 | KPGPLPPNLDDLKVSELRQQLRIRGLPVSGTKTALMDLLRPFQD [R38L] | -0.671 ± 0.088
32 | KPGPLPPNLDDLKVSELRQQLRIRGLPVSGTKTALMDVLRPFQD [R38V] | -0.735 ± 0.082
33 | KPGPLPPNLDDLKVSELRQQLRIRGLPVSGTKTALMDKLRPFQD [R38K] | -0.39 ± 0.094
34 | KPGPLPPNLDDLKVSELRQQLRIRGLPVSGTKTALMDRLRCFQD [P41C] | -0.151 ± 0.085
35 | KPGPLPPNLDDLKVSELRQQLRIRGLPVSGTKTALMDRLRVFQD [P41V] | -0.11 ± 0.087
36 | KPGPLPPNLDDLKVSELRQQLRIRGLPVSGTKTALMDRLREFQD [P41E] | 0.087 ± 0.088
37 | KPGPLPPNLDDLKVSELRQQLRIRGLPVSGTKTALMDRLRRFQD [P41R] | -0.256 ± 0.058
38 | KPGPLPPNLDDLKVSELRQQLRIRGLPVSGTKTALMDRLRWFQD [P41W] | -0.161 ± 0.09
39 | KPGPLPPNLDDLKVSELRQQLRIRGLPVSGTKTALMDRLRMFQD [P41M] | -0.231 ± 0.3
40 | KPGPLPPNLDDLKVSELRQQLRIRGLPVSGTKTALMDRLRFFQD [P41F] | -0.27 ± 0.12

Row | Variant | abundance fitness
41 | KPGPLPPNLDDLKVSELRQQLRIRGLPVSGTKTALMDRLRIFQD [P41I] | -0.001 ± 0.21
42 | KPGPLPPNLDDLKVSELRQQLRIRGLPVSGTKTALMDRLRGFQD [P41G] | -0.084 ± 0.055
43 | KPGPLPPNLDDLKVSELRQQLRIRGLPVSGTKTALMDRLRAFQD [P41A] | 0.037 ± 0.077
44 | KPGPLPPNLDDLKVSELRQQLRIRGLPVSGTKTALMDRLRHFQD [P41H] | -0.14 ± 0.11
45 | KPGPLPPNLDDLKVSELRQQLRIRGLPVSGTKTALMDRLRTFQD [P41T] | -0.351 ± 0.12
46 | KPGPLPPNLDDLKVSELRQQLRIRGLPVSGTKTALMDRLRKFQD [P41K] | -0.305 ± 0.077
47 | KPGPLPPNLDDLKVSELRQQLRIRGLPVSGTKTALMDRLRYFQD [P41Y] | -0.455 ± 0.13
48 | KPGPLPPNLDDLKVSELRQQLRIRGLPVSGTKTALMDRLRDFQD [P41D] | -0.325 ± 0.27
49 | KPGPLPPNLDDLKVSELRQQLRIRGLPVSGTKTALMDRLRLFQD [P41L] | -0.132 ± 0.082
50 | KPGPLPPNLDDLKVSELRQQLRIRGLPVSGTKTALMDRLRSFQD [P41S] | 0.064 ± 0.11
51 | KPGPLPPNLDDLKVSELRQQLRIRGLPVSGTKTALMTRLRPFQD [D37T] | -0.452 ± 0.085
52 | KPGPLPPNLDDLKVSELRQQLRIRGLPVSGTKTALMWRLRPFQD [D37W] | -0.829 ± 0.1
53 | KPGPLPPNLDDLKVSELRQQLRIRGLPVSGTKTALMSRLRPFQD [D37S] | -0.892 ± 0.11
54 | KPGPLPPNLDDLKVSELRQQLRIRGLPVSGTKTALMQRLRPFQD [D37Q] | -0.165 ± 0.098
55 | KPGPLPPNLDDLKVSELRQQLRIRGLPVSGTKTALMVRLRPFQD [D37V] | -0.632 ± 0.081
56 | KPGPLPPNLDDLKVSELRQQLRIRGLPVSGTKTALMNRLRPFQD [D37N] | 0.227 ± 0.14
57 | KPGPLPPNLDDLKVSELRQQLRIRGLPVSGTKTALMYRLRPFQD [D37Y] | -0.271 ± 0.22
58 | KPGPLPPNLDDLKVSELRQQLRIRGLPVSGTKTALMMRLRPFQD [D37M] | -0.264 ± 0.44

— the Human Domainome abundance scans (Beltran et al. 2025)
